Assays:
[1] = molecular target: murine interleukin-2 (mouse) (UniProt P04351); test: SPR, MAB602 amine-coupled to GLM chip, mouse IL-2 as analyte at concentrations >1 nM
[2] = molecular target: human interleukin-2 (human) (UniProt P60568); test: SPR, antibody amine-coupled to GLM chip, hIL-2 as analyte (100 nM, three-fold dilutions)
[3] = molecular target: human interleukin-2 (human) (UniProt P60568); test: sandwich ELISA, hIL-2 captured on coated 5344, biotinylated MAB602 as detector, no competitor (well H11)

Sequence of human interleukin-2 (human) (P60568 21-153 limits assumed): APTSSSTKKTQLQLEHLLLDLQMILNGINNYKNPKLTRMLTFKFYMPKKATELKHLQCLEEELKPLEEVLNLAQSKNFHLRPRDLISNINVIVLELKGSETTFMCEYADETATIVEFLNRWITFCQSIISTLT
Sequence of murine interleukin-2 (mouse) (P04351 21-169 limits assumed): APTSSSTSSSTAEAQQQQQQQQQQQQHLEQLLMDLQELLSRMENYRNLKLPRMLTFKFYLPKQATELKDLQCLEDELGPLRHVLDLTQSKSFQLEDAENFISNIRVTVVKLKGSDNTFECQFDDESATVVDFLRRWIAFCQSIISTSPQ

B1: commercially available anti-human IL-2 monoclonal antibody MAB602 (antibody, from another filing, V domains shown)
VH: EVQLQESGPGLVAPSQSLSITCTVSGFSLTNYDISWIRQPPGKGLEWLGVIWTGGGTNYNSGFMSRLSITKDNSKSQVFLKMNSLQTDDTAIYYCVRQGRTPYWGQGTLVTVSA
VL: DIQVTQSPSSLSVSLGDRVTITCKASKDIYNRLAWYQQKPGNAPRLLISGATSLETGVPSRFSGSGSGKDYTLTITSLQTEDVATYYCQQFWGTPYTFGGGTKLEIKR
response units (RU) [1]: > 10 RU | Kd [2]: 9.7 nM | koff [2]: 0.000494 s⁻¹ | absorbance (OD450) [3]: 1.1 OD450
